Experimental data from patent US20240043505A1 (UNIVERSITY OF PITTSBURGH OF THE COMMONWEALTH SYSTEM OF …, published 2024).
Values joined by “and” are separate entries in the source; they are usually repeats but may differ in a detail not shown here. Equal entries are not always repeated.

Legend:
[1] = molecular target: T1, SARS-CoV-2 spike receptor-binding domain (RBD) (SARS-CoV-2, UniProt P0DTC2 319-541); experiment: SPR (Biacore 3000), RBD immobilised, Nb as analyte, 1:1 Langmuir fit
[2] = molecular target: T1, SARS-CoV-2 spike receptor-binding …; experiment: indirect ELISA, RBD coated on plate, 4PL fit
[3] = molecular target: T2, SARS-CoV-2 (Wuhan-Hu-1 strain) spike glycoprotein on pseudotyped virus particles (SARS-CoV-2, UniProt P0DTC2 14-1273); experiment: cell-based or functional assay
[4] = molecular target: T3, SARS-CoV-2 Munich strain spike glycoprotein on authentic virus (SARS-CoV-2); experiment: cell-based or functional assay
[5] = molecular target: T2, SARS-CoV-2 (Wuhan-Hu-1 strain) spike …; experiment: cell-based or functional assay; remark: listed apart in the source
[6] = molecular target: T3, SARS-CoV-2 Munich strain spike …; experiment: cell-based or functional assay; remark: listed apart in the source

B1: Nb89 (VHH)
VHH: HVQLVESGGGLVQAGGSLRLSCAASGGTFTTFRMAWFRQTPGKEREFVAASSWGFVNYADPVKGRFTISRDNAKNTVYLEMSSLKTEDTAVYYCAARNPGTGQYDYWGQGTQVTVSS
Which kon [1] does the source give for B1 here?
The kon was 5.78e+06 M⁻¹ s⁻¹.

And the ELISA affinity [2]?
The ELISA affinity was 1.09 nM.

B2: Nb21 (VHH)
VHH: QVQLVESGGGLVQAGGSLRLSCAVSGLGAHRVGWFRRAPGKEREFVAAIGANGGNTNYLDSVKGRFTISRDNAKNTIYLQMNSLKPQDTAVYYCAARDIETAEYTYWGQGTQVTVSS
How did the “Pseudo-neut IC50 Luciferase” value [3] turn out when B2 was run?
The value was 0.0495 nM.

And the “Pseudo-neutralization (GFP)” value [3]?
Its value is less than 0.5 nM.

What about the “Authentic virus PRNT IC50” value [4] of the same binder?
The value was 0.022 nM.

And the “IC50, pseudovirus assay” value [5]?
Its value is 0.7 ng/ml and 0.045 nM.

What about the “IC50, SARS-CoV-2 PRNT” value [6] of the same binder?
Its value is 0.021 nM.
